± gives the uncertainty stated by the source.
Assay: protein stability index of a GFP-peptide fusion (yeast GPS) (PSI 1-4); higher = more stable; sorted into four equal gates, so the index is relative within each strain
How it was run: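 Sequencing reads from sorted gates were used to score each peptide. The library consisted of tiled 17-residue yeast protein peptides fused downstream of GFP on a Cherry-expressing plasmid, pooled and carried in yeast. Mid-log cultures in leucine-free medium were split into four equal gates by GFP/Cherry ratio, and each gate's plasmids were PCR-amplified and Illumina-sequenced. The protein stability index adds up, over all gates, the read frequency multiplied by the gate number.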

Sequence	protein stability index (doa10∆)	protein stability index (pdr5∆)	protein stability index (san1∆)	protein stability index (ubr1∆)
SNLEKLLFINSSKLVDV [YML103C/NUP188]	2.48 ± 0.094	2.07 ± 0.066	1.83 ± 0.12	2.62 ± 0.082
DENDSKKNNAASELANP [YAR002W/NUP60]	2.97 ± 0.078	2.99 ± 0.052	3.05 ± 0.047	2.97 ± 0.047
GQQSVEGKRIAFGFVDR [RPO21]	3.25 ± 0.2	3.01 ± 0.2	3.44 ± 0.11	3.52 ± 0.14
CAYTGTGDVLLIQDLLH [RPN1]	3.01 ± 0.059	2.88 ± 0.064	2.75 ± 0.065	2.8 ± 0.052
TTSEKQEVTNEAPFLTS [GAL11]	3.2 ± 0.093	3.35 ± 0.076	3.14 ± 0.11	3.36 ± 0.067
STKFDYPPMPFDGFLFG [FAS1]	2.56 ± 0.046	2.63 ± 0.051	2.68 ± 0.063	2.68 ± 0.037
EKKILNQFLKIKKKRKE [SMC1]	2.98 ± 0.12	3.06 ± 0.12	2.89 ± 0.1	3.33 ± 0.15
GQLTGIYRYKYKVMHQI [PRP8]	2.9 ± 0.14	2.2 ± 0.13	2.91 ± 0.088	2.42 ± 0.081
SAENRDEKDYLTNQQPK [CSE2]	2.76 ± 0.063	2.79 ± 0.062	2.54 ± 0.048	2.77 ± 0.038
DRKIQGWLGALTMANLP [ARP7]	2.8 ± 0.066	3 ± 0.063	2.65 ± 0.069	2.81 ± 0.045
VKLTYNSPSSALRALQE [YDL088C/ASM4]	2.42 ± 0.058	2.44 ± 0.066	2.62 ± 0.088	2.03 ± 0.038
RAINKVLCTRLRLSNFF [SIR2]	1.72 ± 0.059	1.3 ± 0.059	1.18 ± 0.12	1.08 ± 0.034
NDIPQTESPLKTVDSSI [SSN2]	2.99 ± 0.071	3.01 ± 0.055	2.81 ± 0.061	3.03 ± 0.032
VRTSATFRLPKTLKLAR [RPL25]	2.84 ± 0.1	2.35 ± 0.12	1.74 ± 0.26	2.72 ± 0.14
SNGPRAAKKRRPAAKGK [RRP6]	2.97 ± 0.12	3.2 ± 0.11	3.12 ± 0.08	3.17 ± 0.085
ETGKLLSGLAQRKTNGA [BRN1]	–	–	2.97 ± 0.11	–
EFISIYSNSHQMAVHIA [RET1]	3.25 ± 0.11	3.45 ± 0.19	3.04 ± 0.11	3.11 ± 0.087
PLYARYINVNPQEETIT [ECM29]	2.74 ± 0.07	2.85 ± 0.059	2.9 ± 0.067	2.69 ± 0.041
SSTDEESWFKALAGSEI [FAS1]	3.32 ± 0.12	3.34 ± 0.14	3.11 ± 0.11	3.3 ± 0.081
YSIDEFFLQRKLRSELG [BRR2]	2.3 ± 0.12	2.06 ± 0.13	1.8 ± 0.16	1.5 ± 0.22
ASYAKIEIKISDPLTVF [SNU114]	1.21 ± 0.15	2.66 ± 0.25	–	1.45 ± 0.089
ATKAINGCIFTLNPKTG [PRP8]	2.79 ± 0.095	2.73 ± 0.076	2.71 ± 0.059	2.88 ± 0.062
GQMAPIGTGAFDVMIDE [RPO21]	2.29 ± 0.12	2.3 ± 0.13	2.37 ± 0.12	2.54 ± 0.057
QPASYHSVQETNKISPK [SSN2]	3.34 ± 0.098	3.1 ± 0.12	3.08 ± 0.068	1.91 ± 0.069
LKEERAIEPETFTQLVS [PUP3]	2.5 ± 0.057	2.85 ± 0.059	2.94 ± 0.047	2.62 ± 0.04
TYVITKNGKIYLKHNSI [RET1]	2.72 ± 0.053	2.54 ± 0.046	2.45 ± 0.067	2.64 ± 0.028

Sequence	protein stability index (doa10∆)	protein stability index (pdr5∆)	protein stability index (san1∆)	protein stability index (ubr1∆)
SVYYHKGNFRTKPFENV [SNU114]	3.35 ± 0.065	3.35 ± 0.091	3.37 ± 0.059	3.31 ± 0.092
LYNDNNKNNNNRHNLLN [SWI1]	3.08 ± 0.1	1.96 ± 0.062	1.95 ± 0.065	2.4 ± 0.047
KGTEASNDIIDKPYLLR [YDL116W/NUP84]	3.33 ± 0.09	3.23 ± 0.078	3.34 ± 0.1	2.76 ± 0.11
HHAIEEAESLLQFHVAT [RPO21]	2.67 ± 0.094	2.89 ± 0.13	2.64 ± 0.11	2.94 ± 0.087
DEEESNDEKQKAQDVDV [RPN13]	3.33 ± 0.12	3.42 ± 0.077	3.34 ± 0.044	3.32 ± 0.049
ESMSYLPDPILKNFLSY [MCD1]	2.34 ± 0.13	2.79 ± 0.12	2.5 ± 0.14	2.51 ± 0.098
NLQTADTVIIFDTDWNP [SNF2]	2.57 ± 0.14	2.96 ± 0.091	2.8 ± 0.078	2.34 ± 0.064
LHYCVSCAIHARIVRVR [RPS26A]	1.17 ± 0.066	1.2 ± 0.083	1.15 ± 0.13	1.2 ± 0.12
ELAESTTTKIIDSTDHI [LRP1]	2.95 ± 0.1	3.11 ± 0.1	2.86 ± 0.24	2.63 ± 0.12
ASEREELALIEEAYDNP [PRP8]	3 ± 0.12	3.23 ± 0.096	3.35 ± 0.065	3.5 ± 0.14
FDSTAFNATVDETKGFD [MED2]	3.25 ± 0.06	3.28 ± 0.063	3.15 ± 0.063	3.21 ± 0.046
PKGATYGKPTNQGVNEL [RPL15A]	3.02 ± 0.1	3.22 ± 0.085	3.2 ± 0.054	3.29 ± 0.044
NSGIIPGNRNADNVDKI [FAS2]	2.52 ± 0.083	2.52 ± 0.1	3.03 ± 0.091	3.04 ± 0.05
KDRISSCSSKEKTLVLE [SMC4]	2.58 ± 0.097	2.6 ± 0.083	2.45 ± 0.12	2.88 ± 0.098
DLQYLGEFSGKNFSPTK [RRP6]	3.46 ± 0.063	3.25 ± 0.083	3.19 ± 0.04	3.24 ± 0.038
SNNSTTNTFGSNSAGTS [YJL041W/NSP1]	3.08 ± 0.18	3.2 ± 0.14	–	3.05 ± 0.18
SLSAYNLTDEGYQWGEE [PRP8]	3.33 ± 0.22	3.12 ± 0.15	–	3.33 ± 0.19
NNCEDFVSRPDRTMLAP [FAS1]	3.28 ± 0.25	2.98 ± 0.17	2.93 ± 0.26	3.2 ± 0.11
RMKSITSTSQKIPSASI [SNF5]	3.2 ± 0.082	3.18 ± 0.072	3.17 ± 0.045	3.08 ± 0.051
SLQEDVSFDFNGVPGQA [MED8]	2.41 ± 0.06	2.97 ± 0.057	2.64 ± 0.086	3 ± 0.053
LVSTLTTGISSTGAADG [SMC2]	2.34 ± 0.097	2.65 ± 0.088	2.93 ± 0.092	2.69 ± 0.059
SAFKFIHTQLSEIKQQI [YJL039C/NUP192]	2.33 ± 0.1	2.62 ± 0.087	2.82 ± 0.12	2.83 ± 0.061
KDNGMLIIDGQIIFGVV [RPO21]	1.95 ± 0.12	1.79 ± 0.076	1.61 ± 0.21	2.73 ± 0.12
RNEEILRDIGECENEIK [SMC2]	2.75 ± 0.094	2.94 ± 0.075	2.49 ± 0.12	3.23 ± 0.11
TIGGGLFGNKPTTTTGG [YGR119C/NUP57]	3 ± 0.094	3.25 ± 0.21	3.56 ± 0.15	–
RGPYLVIVPLSTLSNWS [SNF2]	1.84 ± 0.051	2.32 ± 0.062	2.17 ± 0.065	2.41 ± 0.035

Sequence	protein stability index (doa10∆)	protein stability index (pdr5∆)	protein stability index (san1∆)	protein stability index (ubr1∆)
NNNNSTRPQMPSRTRET [GRR1]	2.937 ± 0.027	3.108 ± 0.027	2.949 ± 0.024	3.033 ± 0.021
DAKSTPLRLRLYDNFVS [RPN9]	3.3 ± 0.083	3.22 ± 0.088	3.21 ± 0.063	2.87 ± 0.082
ICLMTLIETVFVKNIRM [RPN9]	1.22 ± 0.064	1.3 ± 0.069	1.22 ± 0.13	1.35 ± 0.074
DFDGDEMNLHVPQTEEA [RPO31]	3.03 ± 0.071	3.31 ± 0.068	2.99 ± 0.063	3.18 ± 0.051
KVSKNSTSFKNPRRLEI [YMR153W/NUP53]	2.85 ± 0.059	2.87 ± 0.057	2.88 ± 0.057	2.71 ± 0.032
HVKQCQETCDKLRARLV [SMC2]	2.2 ± 0.18	2.74 ± 0.14	2.34 ± 0.11	2.21 ± 0.06
SLDMNSMNKELIAIVSK [NUT1]	1.56 ± 0.19	1.44 ± 0.13	–	1.19 ± 0.088
RNISFSDNNSRIMSRNF [SWI1]	2.93 ± 0.047	2.85 ± 0.057	2.9 ± 0.068	3.16 ± 0.035
ILNFLNQEDLFELVHHF [YML103C/NUP188]	2.56 ± 0.14	2.8 ± 0.083	1.88 ± 0.22	2.16 ± 0.072
MDLFMSTLGDCLGIKDE [GAL11]	3.54 ± 0.25	–	3.38 ± 0.16	3.22 ± 0.2
RSYDLTRHQNTIHAKRK [RPN4]	2.48 ± 0.061	2.48 ± 0.065	2.52 ± 0.071	2.53 ± 0.07
VQASVTSSTHERKSKTY [RET1]	2.6 ± 0.066	2.78 ± 0.079	2.55 ± 0.056	2.97 ± 0.061
FKTYRNETIIDNFSPHQ [SMC3]	1.97 ± 0.17	1.42 ± 0.18	2.76 ± 0.21	–
KELELERKEREDFQKRQ [SWI1]	3.25 ± 0.076	3.22 ± 0.078	3.32 ± 0.068	3.31 ± 0.045
TIEHAADITDGNNTELT [YCG1]	3.29 ± 0.081	3.46 ± 0.082	3.33 ± 0.078	3.31 ± 0.069
LKEQSEQLKEQMEDMEE [SMC4]	3.21 ± 0.079	2.92 ± 0.13	3.3 ± 0.046	3.14 ± 0.1
SFLEKPKFAIQDNHHIT [YMR129W/POM152]	2.89 ± 0.074	2.81 ± 0.081	2.81 ± 0.051	2.76 ± 0.089
ERDSYKLLASTEENKAN [YIL149C/MLP2]	2.76 ± 0.054	2.77 ± 0.047	2.84 ± 0.046	3.06 ± 0.034
LYDNFVSKFYDKINQLS [RPN9]	2.78 ± 0.098	2.69 ± 0.077	1.58 ± 0.15	2.43 ± 0.077
QRRTNNSGVGSAKGPEI [MED6]	–	–	3.23 ± 0.19	–
PKEVDGLEVGPVVQVGI [IRR1]	3.38 ± 0.11	2.98 ± 0.088	3.37 ± 0.18	3.23 ± 0.08
VDFSKYNTNFNLLLREL [SRP72]	2.99 ± 0.1	3.24 ± 0.12	2.97 ± 0.1	3.31 ± 0.056
NGCIFTLNPKTGHLFLK [PRP8]	3.24 ± 0.064	2.92 ± 0.082	2.98 ± 0.083	2.97 ± 0.083
TQTSKEQEIENNGLPMK [ITC1]	2.9 ± 0.075	3.2 ± 0.12	2.87 ± 0.1	2.86 ± 0.089
DLLKFENISLAEFILKN [BRR2]	2.94 ± 0.082	3.3 ± 0.09	2.82 ± 0.062	2.83 ± 0.074
EPIYGVQYKLLSISVPS [SNU114]	2.18 ± 0.12	2.76 ± 0.18	2.02 ± 0.18	3.09 ± 0.11
